Source: the DeepSol protein solubility set

test: soluble on expression in E. coli; label from the status in PepcDB or PDB records

Soluble on expression in E. coli, not soluble:
MGSDKIHHHHHHMPFSSAALHALLQPGVSERWQAVQRLLHPEMLVLANRAAERAAALLPQQWPLYELSFKSRRAIDRGGGRRDPITDYWFAFDRPPRGAGVMLTVSGIERTVTVGLQLWGVRRPQLAHLWSQARPVWEALIDRIEHEGQARFAGRRPPMTGMRWIDHYLNSRAHYLWAGFVYDWNALPTAERLIDDICALLPLNEALMEQAEIDLATTNTLRETPARYLTGAPSVAQIVMSIKRRGMIIDERTLHAFHLAVQARPLVILAGPSGSGKTWLTRLYADALIGIGEGQPNPCYLLVAVQPDWHSARDLLGYYNSLTGLYQPTPFLNFLLKAAADPDQTYIVCLDEMNLARPEYYLAPILSAMEAVEGLIDLGTPLAETPLAGGGVVRNPIRLPINLRLIGTINVDESTFALSDKVLDRANLIELGTVDMAALALTVSDSKRSGLADIERHPAPPDCCRKAGRLPRLARDTWLRWAGNRYERFRSTRSSDSAAPATALAR, MGSDKIHHHHHHMPGFNSSPASEKSSLLRQHFPLVTIPEYNSWDPDIAYIQLEQAILPLLNQGVLLTGSSLGGFWAYQFACRYRQPCLLINPCMHPELSLQRYIGKVENFYSHEQGWLTEAHLGKYAAYRVNGQPSRLTVLHEQGDELIPYMESVVNFSGKAKLILPGGGHHRFARTDLIAACIRDMLPPEDAGHQKA, MGSDKIHHHHHHMPGGGNGILYSNLAAVKEMKMNNLRVVIITGLSGSGKSTALRALEDIGFYCVDNMPVVLLPQFLEIQSDKSKDISQVAMVMDLREKSFIETYKGIFEQIKARGYKIEIVFLYATDDALLHRFSETRRVHPLSSVSIMEGIRLEREQLRALEEMADKVIDTTSCNVHQLKDIVQRHFLPSSTARRLFIHLISFGYRYGLPADADLVLDVRFLPNPYWVESLKSFNGHHQDVRRYVLSAEASSIFLQKLFDLMEFLIPLYEKEGKPRITIAVGCTGGKHRSVVMANELWSYFSGRDYPVNVNHRDVGKS, MGSDKIHHHHHHMPGWAGYYLEFHGNAYSAPFSADIYINVAYPYDGKLVELGGSILGHNQYFYVKSPYTFPDNVHNVDGYVVEWFDEDWQKWVLWHVSYKPALQVIGCPYVSTWNGIEYVPENTVLVESEILKPRKHMDLTDYYLINNSHTIRENIYSIQLQEFEQDTSYIDSIELLVVDYPQGLELSLDPQGNIVLYIPIHTRLNTRFTTEIASSNVNRLKTDLVIVSPYVKTSYSFKVNKVYENKSVESIHLYPRMFPYRYALFTDKDISKLKMELNDHKLYSIEYGIPVNASYHIVKEKPLLATSDIGGEITEELLEDDGHYAVLTPGDNITLNFKVPPALSSRMKRALILVIKGFYVQKPPTLTKDAVRVIYVPEINGYLFVPLLETYDEILSIMWDFGDGTTSDFFVPFHVYKQGKYKGSLKVKYLNGKTLTIPFYWGG, MGSDKIHHHHHHMPHPYHERLNFKTELPLRVISHGTVGPKMVLPHWHRAVELAYAYRGQPGTAHIGRSTYHMLADHLYVINSEVVHSYETFLDEDNQIVTLLLPASWLRNAVADEQLPIWGPLDLDLQSAVYQPLAKAVQTLVAGVITPSSARSAYLTSLGAEYQLVGQLLKHLTVNGQVTSDQLPLPAPLRQAVTELQENYAQPVSIANLAEQLNYSSVYFSRYFKDYMGISPKAYLGQIRLERATSLLMTSQDSIQNIALKTGFSTEKNFFVTFKQYYQMTPRTYRQRYSAQQSWS, MGSDKIHHHHHHMPHYDVVDTSNNNGIMTVANWRSMKKYGVKAMIAKLSEGTYFTDQTAKPSIRNAITAGLHVNGYHFARFTTETGAKAEAQMAARSALKAGLGKSSVIVLDFEATNSGWNQNSKIVKAWINEVHRMGYPKTDVYTMGSWINSVPLNNSGRGGWVANYPYNPSGFKLYTGYNGWQWTSSMHFPGCYGGFDVSQMYSNYYYGTTTHVAKPKKAIYYRYNPKMIYARTPINRYKDVAFKHKVDNFPAGTVFAIAKVINYGKITRFQLANGYYITSNQTNVNRLYYSVDGGVKRVKSVRGTHRYKDKALKHVVDWQPAETEFDVAKIVKYGDTTRIQLANGLFISGNKKINKFVK, MGSDKIHHHHHHMPINSYENYVLSWRPVKERLTRPYYQSLVQQLEADILSGALQKNVKLPSQRELADYLDLNFTTIGQAYKHAMEKGLLYTNIGCGTFVSPNAFHSITISTNQVADHLIDLGLVSSFDMCNQRILPFIESVSKNAALNSLLNYRDPLGTHFQRATAAEWLQTQGVRTNAEEVAIVSGVQNGLAVTLAAAFSPGQRIAVDRYTYSNFIELAQLYHLEIVPIGYDSEGMDPEHLLQECKKKKIHGIFLMPACNNPIGFQMSSARRMTLAEIIQQEHLWVIEDDIHSFLTTYAQQAVLPTFQELLPQQTIYLAGMTKFVCTGLRIAYLVFPPLLRQEIERAIFNINVKTSGFDAEIVTQVLRSPVAKELVIEKLALTKQANDLFDTIFGLARPSNPLPYYRTIPLSTEKTAPQIEQEFLQNGVRLFHSSRFTVQNQPDAFLRISLASNQLEVLAKGLTIIQELLPTLNEKKGHSL, MGSDKIHHHHHHMPKLASIAPSMESTRPLLQPITVVNRQLQAHCHVMSHSHLWGQFVYASQGVLAVNTPAARYLVTPEQGVWVNSNISHSVTAITEVRLTSFYLDESQCQALPEQSCVLNVAPFLHALIQEARLIPSDFDWQGPRGRLLRLIRDWLSEAKNAPFHLPYSSHPKLMQLFGELQNNPANQDNIATWGQRLGASSRTLSRLIKAETGLSYRHWRQRLNLQLSLSLLAQGHSINHIADSLGYASPSAFIHMFKQQTGDSPARYRK, MGSDKIHHHHHHMPKVLHVADVHLGARPYGLEERRDDIFRSFEFVVETALKDRPDAVLIAGDLFDKPKLPLRDVKQAVELVRALTDAGIPVLAAHGEHDTPSVRDETLLSLMEASLDGFKAPLYRSGMRPGDFVVDLGSLKVAVVPFFKVPLEERRRLTLRFLREFDQISRTSSGTLVLLAHMSLDAEMQFDAVASPSDLPSGAKYAALGHLHAPRIRLDAPTPYAYPGVLDPLKVEEINTPGSPLYVDLSGDAPIIEKVKVPRRPQYRIEVDIGDGGSIYNAVNRGLRRVLANVRASREDWLKPLIHVIIKSDKPISKARVIAEARKAAGGADVLLKIHWKIVAGGEHAGTSPGLQGEGPLDLAKIAAEYYKIPLNAASTILHDLAEAAAEKDELRVREILETLATTVSQDTWKRILYMR, MGSDKIHHHHHHMPQLQTNNTALSTQQSAEMKTTRLLKVLKIMFPRENWTSQKLTSEVNVKGSGVYRFEHGTIAHLGQPGGPRTEHLWEMTVDRVWAKALIEAHNQAQESEALVRTQAEVYPKDWYGLRLRSPAEAAIAEALQTKGVLFFVNTGCRLHNHSKQYETREVDFLVFHQGKVRILEVDGITYHQNPLADYKRDRLFDREGIRTSRFSAQECFENPNGVVEEFLGLFKF, MGSDKIHHHHHHMPRYQHIARQLKTAIEQGELAPGTRLPSSRTWAQELGVSRATVENAYGELVAQGWLERRGQAGTFVSNALRFETAPPIPAVFAGESPEPKPFQMGLPALDLFPREKWARVMGRRLRTQTCFDLALGDVCGEAILRQAIVDYLRVSRSIECLPEQVFITSGYADSMRLILRTLSVPGDSMWVEDPGFPLIRPVITQEGITLAPIPVDADGLNVAAGMRDCPQGRFALVTPAHQSPLGVALSLTRRRQLLAWAANVQAWIIEDDYDSEFRYHGKPLPPLKSLDAPQRVIYAGTFSKSLFPALRTAWLVVPIKQIEHFRQQASLMPCSVPLLWQHTLADFIRDGHFWRHLKKMRQHYAQRRLWIEEALAEQGFVVTLQKGGIQLVIEVEGDDKAQVAKANQAGLAVQALSRWRVVSSGKGGILLSFTNITSAGMAKQVACQLRQAIQ, MGSDKIHHHHHHMPSETRLPNFIRTLIFALSFIFLNACSEQTAQTVTLQGETMGTTYTVKYLSNNRDKLPSPAEIQKRIDDALKEVNRQMSTYQPDSEISRFNQHTAGKPLRISSDFAHVTAEAVHLNRLTHGALDVTVGPLVNLWGFGPDKSVTREPSPEQIKQAASYTGIDKIILKQGKDYASLSKTHPKAYLDLSSIAKGFGVDKVAGELEKYGIQNYLVEIGGELHGKGKNARGEPWRIGIEQPNIVQGGNTQIIVPLNNRSLATSGDYRIFHVDKSGKRLSHIINPNNKRPISHNLASISVVADSAMTADGLSTGLFVLGETEALKLAEREKLAVFLIVRDKGGYRTAMSSEFEKLLR, MGSDKIHHHHHHMPSVKIGIIGAGSAVFSLRLVSDLCKTPGLSGSTVTLMDIDEERLDAILTIAKKYVEEVGADLKFEKTMNLDDVIIDADFVINTAMVGGHTYLEKVRQIGEKYGYYRGIDAQEFNMVSDYYTFSNYNQLKYFVDIARKIEKLSPKAWYLQAANPIFEGTTLVTRTVPIKAVGFCHGHYGVMEIVEKLGLEEEKVDWQVAGVNHGIWLNRFRYNGGNAYPLLDKWIEEKSKDWKPENPFNDQLSPAAIDMYRFYGVMPIGDTVRNSSWRYHRDLETKKKWYGEPWGGADSEIGWKWYQDTLGKVTEITKKVAKFIKENPSVRLSDLGSVLGKDLSEKQFVLEVEKILDPERKSGEQHIPFIDALLNDNKARFVVNIPNKGIIHGIDDDVVVEVPALVDKNGIHPEKIEPPLPDRVVKYYLRPRIMRMEMALEAFLTGDIRIIKELLYRDPRTKSDEQVEKVIEEILALPENEEMRKHYLKR, MGSDKIHHHHHHMPTIAEKLKSRESDLTRAERQLSAAILDNYPIPGLGSITELAELAEVSTPTVARMVQKLGFSGYPEFQHALREELREIISNPVEKRAEQAPELPEGHMLNRYAVAVYDNIRATLENVNLEEFDTLCALLADTNSRVHIAGGRLSGTLAQNFYLHLQMIRRDVFMIPPRASWTHSVLDLLPGDTLILFDIRRYENATLLLAEMAHERGVKVVLFTDQWRSPIQKEATFTFAARIAVPSAWDSGVALLLLIESMIAKIQEDHWDTVKARNDELEAAFDRTRLFRKFT, MGSDKIHHHHHHMPTLIERIHQVELGNLTQLDQLCHQLGLPYFLMGGSLLGAIRHQGFIPWDDDVDVGLLRADYDQLLAAAPTHLADSPYFLQTPTSDENYGLSYAKLLDRRTYIEEKRNVNNARKGIFIDIFPLDRIPQDTSAQQKQSTKFQLLNTRILLQLRYHLVDNPLRKLQGPLSSEQLTSVNALKAERQAVMTQYQAEITLPQVKNLSSQYAYAKEVFTVAELSDLTTVPFEHLQVQVPRNYATILTRMYGDYLALPPENQRTKKHLERVIMDNQVFTD, MGSDKIHHHHHHMPVNIKQLAQEFDKKEIGITQGHRLCPGCGAPITVKFVMMIARHLGYEPVVGLATGCLEVSTSIYPYTAWSVPYIHNAFENVAATMSGVETAYKALKNKGKIPEDKKYAFIAFGGDGGTYDIGLQSLSGMLERGHKVLYVLYDNEGYMNTGNQRSGSTPPGSDTTTAPVGKKLPGKVQLKKNIVEIVAAHENVYAATASLSEPMDFFAKVEKALNFDGPSFLAVFSPCVRFWRVNDDKTVEISKLAVETKYWPLYEVERGVYRVTRKPRQFKPVEEFLKAQGRFRKLLSRPDAKEIVDELQEYVDRRWERLLTLEEVTKDKPIR, MGSDKIHHHHHHMPYFERDGYYIDRCPECRFVYVRNVPSDGTLAAFYSGYYGDVNEFVPVSRKRLSKRFSKSVENWWHARNLVRCAAGRRKLLEIGYGEGHLLMALKQTRRFELRGIDYATGPMAYMSANGIDVAQGSLFDQHYPDNRFEFIVGFHVLEHVQHLGEFMSEVRRVLAPAGRVYFVVPCVTHFSAVRRRQNWKHFGPPGHLWYFSVTAMRRFMTDQDFKVVSAHCISNRTHLTVLAEKTS
